For data set [1], the target named is T1, TAK1 (Mus musculus, UniProt Q62073).
T1 construct: A gene encoding a full-length TAK1 was prepared by digesting yeast 2-hybrid expression plasmid pBTMHu11F; expressed in transfected cells; host or cells: Saccharomyces cerevisiae strain L40
T1 sequence (Q62073 1-579): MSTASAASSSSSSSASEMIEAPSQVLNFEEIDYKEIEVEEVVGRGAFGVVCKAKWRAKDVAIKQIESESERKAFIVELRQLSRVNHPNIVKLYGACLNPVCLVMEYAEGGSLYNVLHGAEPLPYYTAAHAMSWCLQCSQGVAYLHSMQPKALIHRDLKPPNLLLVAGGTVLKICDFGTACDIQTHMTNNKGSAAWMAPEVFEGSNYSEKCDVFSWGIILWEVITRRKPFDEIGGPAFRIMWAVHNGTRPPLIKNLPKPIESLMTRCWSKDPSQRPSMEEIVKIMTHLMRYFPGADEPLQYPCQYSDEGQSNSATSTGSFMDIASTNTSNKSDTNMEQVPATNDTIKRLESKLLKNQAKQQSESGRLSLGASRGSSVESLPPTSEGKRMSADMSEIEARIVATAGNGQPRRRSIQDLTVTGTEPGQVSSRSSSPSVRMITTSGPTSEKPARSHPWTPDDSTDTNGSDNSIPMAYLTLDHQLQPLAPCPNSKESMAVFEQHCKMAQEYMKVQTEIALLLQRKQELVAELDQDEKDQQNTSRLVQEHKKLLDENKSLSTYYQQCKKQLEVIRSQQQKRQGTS
As to the kind of experiment: Yeast 2-hybrid method, β-galactosidase activity: binding ability of TAB1 deletion mutants to TAK1. The following applies: yeast L40 co-transformed with TAK1 2-hybrid expression plasmid; GAL4 activation domain fusion; measured three times. The format is cell-based. From the text: In order to evaluate each TAB1 deletion mutant constructed in Example 10, a yeast 2-hybrid expression vector of each TAB1 deletion mutant and a yeast 2-hybrid expression vector pBTMHu11F (Shibuya H. et al., Science (1996) 272, 1179-1182) that expresses TAK1 were co-transformed into a yeast strain L40 (Shibuya H. et al., Science (1996) 272, 1179-1182). […] each of a TAB1 deletion mutant expression vector (pGAD-TAB1C45 to pGAD-TAB1C45 in Working Example 10-1 and pGAD-TAB1C45D14 to pGAD-TAB1C45D25 in Working Example 10-2) or pGAD-TAB1 (Shibuya H. et al., Science (1996) 272, 1179-1182) as a control and pBTMHu11F were introduced into the L40 strain according to the instructions (MATCHMAKER™ Two-Hybrid System, manufactured by CLONTECH), and were incubated on a selection agar medium SD-ULW (glucose 20 g, agar (manufactured by DIFCO) 20 g, Yeast Nitrogen Base w/o amino acids (manufactured by DIFCO) 6.7 g, adenine 100 mg, isoleucine 30 mg, valine 150 mg, arginine 20 mg, lysine 30 mg, methionine 20 mg, phenylalanine 50 mg, threonine 200 mg, tyrosine 30 mg, histidine 100 mg-per liter of medium) at 30° C. for 3 days to obtain each transformant.
In order to evaluate the binding ability to TAK1 of each TAB1 deletion mutant constructed in Example 10, activity was determined by the yeast 2-hybrid method. Since a reporter gene lacZ having the LexA binding sequence upstream thereof has been integrated on the chromosome of the yeast strain L40, the binding ability to TAK1 of each TAB1 deletion mutant can be evaluated in relative terms by measuring the activity of β-galactosidase that is a reporter gene product.
The β-galactosidase activity of each transformant obtained in Example 11 was determined according to the instructions (MATCHMAKER™ Two-Hybrid System, manufactured by CLONTECH), and the activity was calculated using Miller Unit (Miller, J. H. (1972) Experiments in Molecular Genetics, Cold Spring Harbor Laboratory, Cold Spring Harbor, N.Y.).
In FIG. 11, the β-galactosidase activity of each TAB1 deletion mutant and the yeast L40 transformed by the yeast 2-hybrid expression plasmid of TAK1 was expressed in terms of Miller Units. Measurement was carried out three times and the mean+/−SD is shown. The value indicates a ratio based on the β-galactosidase activity of the yeast L40 transformed by TAB1C68 and the yeast 2-hybrid expression plasmid of TAK1.
The β-galactosidase activity of each transformant obtained in Example 11 was determined according to the instructions (MATCHMAKER™ Two-Hybrid System, manufactured by CLONTECH), and the activity was calculated using Miller Units (Miller, J. H. (1972) Experiments in Molecular Genetics, Cold Spring Harbor Laboratory, Cold Spring Harbor, N.Y.).
In FIG. 12, the β-galactosidase activity of the yeast L40 transformed by each TAB1 deletion mutant and the yeast 2-hybrid expression plasmid of TAK1 was expressed in terms of Miller Units. Measurement was carried out three times and the mean+/−SD is shown. The value indicates a ratio based on the β-galactosidase activity of the yeast L40 transformed by the TAB1C68 and yeast 2-hybrid expression plasmid of TAK1.
First, binding between the 68, 45, 40, 35, 30 and 25 amino acid regions of the carboxy terminal of TAB1 and TAK1 was evaluated by the yeast 2-hybrid method mentioned above.

In data set [2] the test system is TAK1. As to the kind of experiment: Growth of yeast SY1984-P on plate without histidine: ability of TAB1 deletion mutants to activate TAK1. The format is cell-based. Conditions: growth of yeast SY1984-P with pNV11-HU11 on SC-His plate, 30° C. The text has this:
The region of TAB1 required to induce the kinase activity after binding to TAK1 was identified using TAB1 deletion mutants.
Expression vectors for the 40, 35 and 30 amino acid regions (FIG. 14) in the carboxy terminal of TAB1 were constructed as described below. Thus, genes encoding 40, 35 and 30 amino acid regions respectively in the carboxy terminal of TAB1 were amplified by the PCR method as described above, digested with restriction enzymes XhoI and EcoRI, and inserted to the GAL4 transcription activated domain expression vector pGAD10 to construct pGAD-TAB1C40, pGAD-TAB1C35 and pGAD-TAB1C30, respectively. Furthermore, expression vectors for the TAB1 deletion mutants (FIG. 14) comprising 68, 45 and 25 amino acid regions in the carboxy terminal of TAB1 used were pGAD-TAB1, pGAD-TAB1C45 and pGAD-TAB1C25.
Subsequently, it was investigated whether each TAB1 deletion mutant can induce the kinase activity of TAK1 using the method described in Japanese Unexamined Patent Publication (Kokai) 9(1997)-163990. Thus, the above TAB1 deletion mutant expression vector and TAK1 expression vector pNV11-HU11 (Yamaguchi, K. et al., Science (1995) 270, 2008-2011) were introduced into Saccharomyces cereviceae SY1984-P strain (his3Δ, stellΔ, FUS1p::HIS3, STE7^P368) to obtain deletion mutants. […] These transformants were plated onto a SC-His (glucose 20 g, agar (manufactured by DIFCO) 20 g, Yeast Nitrogen Base w/o amino acids (manufactured by DIFCO) 6.7 g, adenine 100 mg, isoleucine 30 mg, valine 150 mg, arginine 20 mg, lysine 30 mg, methionine 20 mg, phenylalanine 50 mg, threonine 200 mg, tyrosine 30 mg per liter of medium) plate containing no histidine, incubated at 30° C., and the growth of yeast transformed with each expression vector was confirmed in order to evaluate the ability of each TAB1deletion mutant to activate TAK1.

With “TAB1C20: polypeptide comprising 20 amino acids of the carboxy terminal of TAB1 (AEFYRLWSVDHGEQSVVTAP; left off: large carriers)”, the “specific activity: β-galactosidase activity as ratio to TAB1C68” value (from here on “specific activity … as ratio to TAB1C68”) with TAK1 [1] came out at 0.03.

For “TAB1C21: polypeptide comprising 21 amino acids of the carboxy terminal of TAB1 (FAEFYRLWSVDHGEQSVVTAP; left off: large carriers)”, the “specific activity … as ratio to TAB1C68” value with TAK1 [1] is given as 0.03.

Consider “TAB1C22: polypeptide comprising 22 amino acids of the carboxy terminal of TAB1 (DFAEFYRLWSVDHGEQSVVTAP; left off: large carriers)”, for which the “specific activity … as ratio to TAB1C68” value with TAK1 [1] turned out to be 0.03. On to “TAB1C23: polypeptide comprising 23 amino acids of the carboxy terminal of TAB1 (VDFAEFYRLWSVDHGEQSVVTAP; left off: large carriers)”, for which the “specific activity … as ratio to TAB1C68” value with TAK1 [1] was 0.05. The same measure, in the same setting: the same measure for “TAB1C24: polypeptide comprising 24 amino acids of the carboxy terminal of TAB1 (YVDFAEFYRLWSVDHGEQSVVTAP; left off: large carriers)”: 0.35. As to “TAB1C25: polypeptide comprising 25 amino acids of the carboxy terminal of TAB1 (PYVDFAEFYRLWSVDHGEQSVVTAP; left off: large carriers)”, the “ability to activate TAK1” value in the data set with TAK1 [2] is reported as “not”. For “TAB1C30: 30 amino acid region in the carboxy terminal of TAB1 (DGRVEPYVDFAEFYRLWSVDHGEQSVVTAP; left off: large carriers)”, in the data set on TAK1 [2], the “ability to activate TAK1” value is listed as “observed”. The same measure, in the same setting: the same measure for “TAB1C35: 35 amino acid region in the carboxy terminal of TAB1 (LPPGEDGRVEPYVDFAEFYRLWSVDHGEQSVVTAP; left off: large carriers)”: “observed”; for “TAB1C40: 40 amino acid region in the carboxy terminal of TAB1 (RPAHSLPPGEDGRVEPYVDFAEFYRLWSVDHGEQSVVTAP; left off: large carriers)”: “observed”. For the molecule “TAB1C45 Δ19: lacks 19 amino acids from the carboxy terminal of the 45 amino acid carboxy terminal portion of TAB1 (GLFRSRPAHSLPPGEDGRVEPYVDFA; UniProt Q15750 460-485, looked up, fragment)”, the “specific activity … as ratio to TAB1C68” value with TAK1 [1] was 0.13. Same read-out and setting: the same measure for “TAB1C45 Δ20: lacks 20 amino acids from the carboxy terminal of the 45 amino acid carboxy terminal portion of TAB1 (GLFRSRPAHSLPPGEDGRVEPYVDF; UniProt Q15750 460-484, looked up, fragment)”: 0.11; for “TAB1C45 Δ21: lacks 21 amino acids from the carboxy terminal of the 45 amino acid carboxy terminal portion of TAB1 (GLFRSRPAHSLPPGEDGRVEPYVD; UniProt Q15750 460-483, looked up, fragment)”: 0.01. On the same count and under the same terms, then “TAB1C45 Δ22: lacks 22 amino acids from the carboxy terminal of the 45 amino acid carboxy terminal portion of TAB1 (GLFRSRPAHSLPPGEDGRVEPYV; UniProt Q15750 460-482, looked up, fragment)”, with 0.02; and “TAB1C45 Δ23: lacks 23 amino acids from the carboxy terminal of the 45 amino acid carboxy terminal portion of TAB1 (GLFRSRPAHSLPPGEDGRVEPY; UniProt Q15750 460-481, looked up, fragment)”, with 0.00. The same measure, in the same setting: the same measure for “TAB1C45 Δ24: lacks 24 amino acids from the carboxy terminal of the 45 amino acid carboxy terminal portion of TAB1 (GLFRSRPAHSLPPGEDGRVEP; UniProt Q15750 460-480, looked up, fragment)”: 0.02; for “TAB1C45 Δ25: lacks 25 amino acids from the carboxy terminal of the 45 amino acid carboxy terminal portion of TAB1 (GLFRSRPAHSLPPGEDGRVE; UniProt Q15750 460-479, looked up, fragment)”: 0.01. “TAB1C45: polypeptide comprising 45 amino acids of the carboxy terminal of TAB1 (GLFRSRPAHSLPPGEDGRVEPYVDFAEFYRLWSVDHGEQSVVTAP; left off: large carriers)”: in the data set with TAK1 [2], the “ability to activate TAK1” value is recorded as “observed”.

B1: TAB1C68: 68 amino acid residues of the carboxy terminal of the TAB1 polypeptide (pGAD-TAB1) (protein)
chain: QSPTLTLQSTNTHTQSSSSSSDGGLFRSRPAHSLPPGEDGRVEPYVDFAEFYRLWSVDHGEQSVVTAP
modifications: GAL4 activation domain fusion
Take B1: the “ability to activate TAK1” value in the data set with TAK1 [2] is on record as “observed”.

(Values after patent US6551840B2, “Method of screening TGF-β-inhibiting substances” (Chugai Seiyaku Kabushiki Kaisha, priority 1997, dated 2003).)
